Earlier results as cited in US20250341526A1, “NOVEL DYES” (Quantum-Si Incorporated, priority 2024, published 2025).

Tested on: amino acid at a terminal position of a polypeptide
Conditions: Table 1, ClpS proteins; amino acid at terminal position; inferred from literature and/or demonstrated by the inventors; cited from earlier work

Row | Molecule | Binding Pref.
1 | PS435: ClpS amino acid recognition protein, SEQ ID NO: 58 (protein) MTLSVALGPDTQESTQTGTAVSTDTLTAPDIPWNLVIWNDPVNLMSYVSYVFQSYFGYSETKANKLMMEVHKKGRSIVAHGSKEQVEQHAVAMHGYGLWATVEKATGGNSGGGKSGGPGKGKGKRG | F, Y, W, L
2 | PS370: ClpS amino acid recognition protein, SEQ ID NO: 3 (protein) MFNSLGTVLDPKKSKAKYPEARVIVLDDNFNTFQHVANCLLAIIPRMCEQRAWDLTIKVDKAGSAEVWRGNLEQAELYHEQLFSKGLTMAPIEKT | F, L
3 | PS372: ClpS amino acid recognition protein, SEQ ID NO: 5 (protein) MAFPARGKTAPKNEVRRQPPYNVILLNDDDHTYRYVIEMLQKIFGFPPEKGFQIAEEVDRTGRVILLTTSKEHAELKQDQVHSYGPDPYLGRPCSGSMTCVIEPAV | L, I, V
4 | PS371: ClpS amino acid recognition protein, SEQ ID NO: 4 (protein) MATETIERPRTRDPGSGLGGHWLVIVLNDDHNTFDHVAKTLARVIPGVTVDDGYRFADQIHQRGQAIVWRGPKEPAEHYWEQLQDAGLSMAPLERH | F, Y, W, L
5 | PS434: ClpS amino acid recognition protein, SEQ ID NO: 57 (protein) MSRLPWKQEAKFAATVIIDFPDATLEAPTIEKKEATEQQIEMPWNVVVHNDPVNLMSYVTMVFQRVFGYPRERAEKHMLEVHHSGRSILWSGLRERAELYVQQLHGYLLLATIEKTV | F, Y, W, L
6 | PS420: ClpS amino acid recognition protein, SEQ ID NO: 43 (protein) MSDYSNQISQAGSGVAEDASITLPPERKVVFYNDDFTTMEFVVDVLVSIFNKSHSEAEELMQTVHQEGSSVVGVYTYDIAVSRTNLTIQAARKNGFPLRVEVE | F, Y, W, L
7 | PS432: ClpS amino acid recognition protein, SEQ ID NO: 55 (protein) MIGVEARTSSAPELAIETEIRLAGLWHVIVINDPVNLMSYVVMVLRKIFGFDDTKARKHMLEVHENGRSIVWSGEREPAEAYANTLHQWHLSAVLERDETD | F, W
8 | PS433: ClpS amino acid recognition protein, SEQ ID NO: 56 (protein) MMSSLKECSIQALPSLDEKTKTEEDLSVPWKVIVLNDPVNLMSYVVMVFRKVFGYNENKATKHMMEVHQLGKSVLWTGQREEAECYAYQLQRWRLQTILEKDD | F, Y, W, L
9 | PS421: ClpS amino acid recognition protein, SEQ ID NO: 44 (protein) MTTPNKRPEFEPEIGLEDEVGEPRKYKVLLHNDDYTTMDFVVQVLIEVFRKSETEATHIMLTIHEKGVGTCGIYPAEVAETKINEVHTRARREGFPLRASMEEV | F, Y, W, L
10 | PS416: ClpS amino acid recognition protein, SEQ ID NO: 39 (protein) MTSQTDTLVKPNIQPPSLFKVIYINDSVTTMEFVVESLMSVFNHSADEATRLTQLVHEEGAAVVAILPYELAEQKGMEVTLLARNNGFPLAIRLEPAV | F, Y, W, L
11 | PS417: ClpS amino acid recognition protein, SEQ ID NO: 40 (protein) MSNLDTDVLIDEKVKVVTTEPEKYRVILLNDDVTPMDFVINILVSIFKHSTDTAKDLTLKIHKEGSAIVGVYTYEIAEQKGIEATNESRQHGFPLQVKIERENTL | F, Y, W
12 | PS412: ClpS amino acid recognition protein, SEQ ID NO: 35 (protein) MATKREGSTLLEPTAAKVKPPPLYKVLLLNDDYTPMEFVVLVLKKFFGIDQERATQIMLKVHTEGVGVCGVYPRDIAHTKVEQVVDFARQHQHPLQCTMEES | F, Y, W, L
13 | PS414: ClpS amino acid recognition protein, SEQ ID NO: 37 (protein) MQAAGNEPPDPQNPGDVGNGGDGGNQDGSNTGVVVKTRTRTRKPAMYKVLMLNDDYTPMEFVVHVLERFFQKNREEATRIMLHVHRRGVGVCGVYTYEVAETKVTQVMDLARQNQHPLQCTIEKE | F, Y, W, L
14 | PS424: ClpS amino acid recognition protein, SEQ ID NO: 47 (protein) MSVETIEKRSTTRKLAPQYRVLLHNDDYNSMEYVVQVLMTSVPSITQPQAVNIMMEAHNSGLALVITCAQEHAEFYCETLKGHGLSSTIEPD | F, Y, W
15 | PS415: ClpS amino acid recognition protein, SEQ ID NO: 38 (protein) MALPETRTKIKPDVNIKEPPNYRVIYLNDDKTSMEFVIGSLMQHFSYPQQQAVEKTEEVHEHGSSTVAVLPYEMAEQKGIEVTLDARAEGFPLQVKIEPAER | F, Y, W
16 | PS426: ClpS amino acid recognition protein, SEQ ID NO: 49 (protein) MSIIEKTQENVAILEKVSINHEIILYNDDVNTFDHVIETLIRVCNHEELQAEQCAILVHYTGKCAVKTGSFDELQPLCLALLDAGLSAEIT | F, Y, W, L
17 | PS423: ClpS amino acid recognition protein, SEQ ID NO: 46 (protein) MAPTPAGAAVLDKQQQRRHKHASRYRVLLHNDPVNTMEYVVESLRQVVPQLSEQDAIAVMVEAHNTGVGLVIVCDIEPAEFYCEQLKTKGLTSSIEPED | F, Y, W
18 | PS418: ClpS amino acid recognition protein, SEQ ID NO: 41 (protein) MSDHNIDHDTSVAVHLDVVVREPPMYRVVLLNDDFTPMEFVVELLMHFFRKTAEQATQIMLNIHHEGVGVCGTYPREIAETKVAQVHQHARTNGHPLKCRMEPS | F, Y, W, L
19 | PS419: ClpS amino acid recognition protein, SEQ ID NO: 42 (protein) MEKEQSLCKEKTHVELSEPKHYKVVFHNDDFTTMDFVVKVLQLVFFKSQLQAEDLTMKIHLEGSATAGIYSYDIAQSKAQKTTQMAREEGFPLRLTVEPEDN | F, Y, W, L
20 | PS430: ClpS amino acid recognition protein, SEQ ID NO: 53 (protein) MQPFEETYTDVLDEVVDTDVHNLVVFNDDVNTFDHVIETLIDVCKHTPEQAEQCTLLIHYKGKCSVKNGSWEELVPMRNEICRRGISAEVLK | F, Y, W, L
21 | PS409: ClpS amino acid recognition protein, SEQ ID NO: 32 (protein) MPARLTDIEGEPNTDPVEDVLLADPELKKPQMYAVVMYNDDYTPMEFVVDVLQNHFKHTLDSAISIMLAIHQQGKGIAGIYPKDIAETKAQTVNRKARQAGYPLLSQIEPQG | F, Y, W, L
22 | PS425: ClpS amino acid recognition protein, SEQ ID NO: 48 (protein) MTHYFSNILRDQESPKINPKELEQIDVLEEKEHQIILYNDDVNTFEHVIDCLVKICEHNYLQAEQCAYIVHHSGKCSVKTGSLDELVPKCNALLEEGLSAEVV | F, Y, W, L
23 | PS410: ClpS amino acid recognition protein, SEQ ID NO: 33 (protein) MGDDDQSSREGEGDVAFQTADPELKRPSLYRVVLLNDDYTPMEFVVHILEQFFAMNREKATQVMLAVHTQGKGVCGVYTKDIAETKAALVNDYSRENQHPLLCEVEELDDESR | F, W, L
24 | PS411: ClpS amino acid recognition protein, SEQ ID NO: 34 (protein) MTRPDAPEYDDDLAVEPAEPELARPPLYKVVLHNDDFTPMEFVVEVLQEFFNMDSEQAVQVMLAVHTQGKATCGIFTRDIAETKSYQVNEYARECEHPLMCDIEAAD | F, Y, W, L
25 | PS422: ClpS amino acid recognition protein, SEQ ID NO: 45 (protein) MTQIKPQTIPDTDVISQTQSDWQMPDLYAVIMHNDDYTTMDFVVFLLNAVFDKPIEQAYQLMMQIHQTGRAVVAILPYEIAEMKVDEATSLAEQEQFPLFISIEQA | F, Y, W, L
26 | PS427: ClpS amino acid recognition protein, SEQ ID NO: 50 (protein) MSTKEKVKERVREKEAISFNNEIIVYNDDVNTFDHVIETLIRVCNHTPEQAEQCSLIVHYNGKCTVKTGSMDKLKPQCTQLLEAGLSAEIV | F, W
27 | PS413: ClpS amino acid recognition protein, SEQ ID NO: 36 (protein) MMKQCGSYFLIKAVQDFKPLSKHRSDTDVITETKIQVKQPKLYTVIMYNDNYTTMDFVVYVLVEIFQHSIDKAYQLMMQIHESGQAAVALLPYDLAEMKVDEVTALAEQESYPLLTTIEPA | F, Y, W, L
